According to paper PMC4339890 (Nature Communications, 2015):

Biological target: the molecule itself
Assay: not stated; PAXX 1-145 in solution (Supplementary Fig. 2)

B1: PAXX N-terminal fragment (1–145) (domain or fragment, human, UniProt Q9BUH6 1-145, looked up)
chain: MDPLSPPLCTLPPGPEPPRFVCYCEGEESGEGDRGGFNLYVTDAAELWSTCFTPDSLAALKARFGLSAAEDITPRFRAACEQQAVALTLQEDRASLTLSGGPSALAFDLSKVPGPEAAPRLRALTLGLAKRVWSLERRLAAAEET
notes: A SeMet-labelled double mutant L57M/L105M of the same limits was used for phasing only; source: E. coli (pETDuet-1), purified (nickel beads, HiTrap Q, Superdex 200 gel filtration)
  stoichiometry N: 2
